# From the DeepSol protein solubility set
# Assay: soluble on expression in E. coli; label from the status in PepcDB or PDB records
sequence,measurement,value
MIELDQTNIPKHVAIIMDGNGRWAKQKNKMRIFGHTNGVTAVRKAVAYARQIGVEVLTLYAFSSENWSRPEQEISALMSLFMQALDREVKKLHKNNICLKIIGDVSRFSETLQEKIKKAENLTEKNTALTLNIAANYGGCWDIIQAAKQIAEKVKKEEMSVSDINNSTFQHHLATQNAPPVDLLIRTSGEQRISNFLLWQIAYAELYFSDVLWPDFNQLEFNRAIASYQQRHRRFGGTE,soluble on expression in E. coli,not soluble
MGSDKIHHHHHHMRKLLNTLYVTSPNTYLSLDGENIVILKDDVEALRVPLHNLESIIAFGYTGASPALMGACAKRNISLSFMKSNGKFLGRVVGEVRGNVTLRKAQYRLSDDEATSHRIAKSFILGKVYNSRWVVERATRDHGARLDVEKLKGVCQTLANALRLVENSKDLDQLRGVEGEAAAQYFRVLDDLILQQKEDFYFKCRNKRPPLDNVNAMLSFIYTLLAHDAAAALETVGLDPYVGFLHRDRPGRISLALDLMEELRAVFADRFVLSLINRREVNPSGFTRMENGAVVMDDDTRRDILKAWQSRKQEEIKHPFLQEKMEWGLVPYAQAMLLARFIRGDLDGYPAFMWK,soluble on expression in E. coli,not soluble
MGSDKIHHHHHHMDKVIEMKGITKVFPGTIANDNVNFELTRGETHVLLGENGAGKTTLMNILYGLYHPEKGQIIVNGKSVQFSGPNDAIKSGIGMVHQHFMLVNNFTVAENIVLGMEPKNGIRVDMGKAINNVKELSDKYGFAIEPKAIIEDISVGQQQKVEILKALYRGADVLILDEPTAVLTPQEIDELGDIIENLKKEGKSVILITHKLKEVMKMSDRVTIIRRGKVTGTVNTKDTSIDELAELMVGRKVNLTIAKKESKAGKEVLRVEELKVKDHRDVLVVKGINLVVNSGEILGIAGVDGNGQSEFIEALTGLKKVESGNVILNGKNISGKSAKYITNSGVGHIPEDRHKRGLVLKYSLYENSILGMHHRKPFSRMFNINYKAVRKHCKKLIEEFDIRTPNDEVNAAALSGGNQQKLVVAREISRNPDLLIASQPTRGLDVGAIEYIHKRIVEERDKGKAVLLVSLELDEILALSDRIAVMYDGKIVDVLERKDADEKKLGILMAGGNLDKKESVNTVEER,soluble on expression in E. coli,not soluble
MGLIDVLKSFKSPSGREIRILLLGLDNAGKTTILKQLSSEDVQHVTPTKGFNVKTVAAMGDIRLNVWDIGGQRSIRPYWSNYYENIDTLIFVIDSNDKKRFDEMNIELGELLDEEKLRKVPVLIFANKQDLVTAASSEEITRKLNLDLLRDRTWHIQACSALKNEGINDGITWVASNLKPASKK,soluble on expression in E. coli,not soluble
MSPLASRALSFLGALSLLTFAATPVLAESTPTAAPPQFAVESPKAASSLLLSVAHAGKRLVAVGDRGHILLSDDDGKTWTQAKVPTRQLLTSVFFVNERKGWAVGHDAQILVSDDAGSTWARQFEDLGREAPLLDIWFADEQHGLAVGAYGALLETRDGGQHWEDVSERLDNEDQFHLNAIAAVKDNGLLVVGEAGSLFRSKDWGATWEKLEGPYEGSLFGAIGTADAGGVLVYGLRGHLFRSADFGDSWEEIPLKAASGDLEFGLSDGALLADGRIVVVGHGGSVLESTDGGRSFSVFNRPDRLSLAGVSATGDGHLILVGQGGVHLAAANGAALEQQQLEHHHHHH,soluble on expression in E. coli,not soluble
MSLSILFKNAALLDPLQADLMDAHHVLVEDNLIKEVSDRPLQVTADRTIDLRGKTLMPGLIDLHVHAVAVELNLAQQVHMPNVLVTLRSTLLLRGMLRRGFTTVRDAGGAGHALKQAIETGLTDGPRLFVSGRALSQTGGHGDMRARSDYLASDAPCPCCVRVGALARVADGVDGVRRAAREELQMGADQIKIMASGGVASPTDPVGAFGYSEDEIRAIVEEARGRQTYVLAHAYTAAAIARAVRCGVRTIEHGNLVDEPTARLMAEKGAYVVPTLVTYEALANEGAQYGLPPESVAKIADVRDAGLRSLAIYRDAGVKMGFGSDLLGPSQRLQSDEFRIRAEILGPRAVIASATVIGAEVLGMEGKLGRIAPEALADLLVVDGNPLRDVACLLGQGEHIPLVLKAGKVQFDRLNAEGHHHHHH,soluble on expression in E. coli,not soluble
MGSDKIHHHHHHMTDLGLYRHLDQMAPWNDRLQVLEVIGVSDEAPDVKTFTFRSDNQTWFRYKPGQFVTLELPTPDGPLMRTYTLSSSPSRPFSIAVTVKAQAGSIGTRWMFDHLVPGSHVKAYGPSGDFSLHSHPAAKYLFISAGSGVTPMMSMLRWLNDCAPWTDVGFVNCARRPEEIIFRKELELLGGHMPGLSLGFMIEERSSREGWYGHMGRIDAIRLPLLAPDFREREIFCCGPDPFMRAVRGMLEAAGFDMTKYHQESFAAPAVEEVPAPFVSPGEDGVTVPVEATPIRFALSVVDAECVAGQTVLQTARASGVRIPAACEFGLCGTCKVKKVSGAVEMSHNGGILDHEIDDGFILACCSKPLSALEIEA,soluble on expression in E. coli,not soluble
MYLRKILELYRDSRFKYVVVDTPPTGLTLRILSLPRLYTFWLESLIGIRERIVSLRYVIARSIGREPEMDDPVLDKLREMQDRYAKLSNDLVERERTSFAIVATPEPLPVYEARKTVEFLESMGAKPSIIVVNRILPAEIASRLGVLEVQSKALNELRTRVCRKPCVLVEIPMVETVPSSLEAVLNLVERSR,soluble on expression in E. coli,not soluble
MSLHIHILGICGTFMGGVAMLARQLGHKVTGSDANVYPPMSTMLEAQGIEIIEGFDPVQLEPKPDLVVIGNAMSRGNPCVEYVLNHNLRYTSGPQWLQDFLLHDRWVIAVSGTHGKTTTSSMIAWVLEHCGYQPGFLVGGVLGNFGISARLGESMFFVVEADEYDSAFFDKRSKFVHYHPRTLVMNNLEFDHADIFDNLEAIKRQFHHLVRTVPGNGRILAPKQDEALADVLQRGCWSETEFSGEQGEWQAEKITADGSQFHVLLKGERVGQVNWSLVGDHNVSNALMAIAAARHVGVAPELACEALGLFVNTKRRLELKGEINGVTVYDDFAHHPTAIELTLGGLRNKVGDKKIIAVLEPRSATMKLGVHKETLAASLHSADSVYLYQPSNIPWSVEEVAKQCQQPAQVSANMDEFVAMIAKEAQAGDQILVMSNGGFEGIHGKLLAALQQKEGHHHHHH,soluble on expression in E. coli,soluble
MVHEEDFKEGYILGFIEAEGSFSVSIKFQRDVFGGVRLDPVFSITQKNREVLEAIKEHLGIGRIMEKAGQPNTYVYVVDNFNELVKLINFLNKYADFMIVKKRQFLMFREIANGLVNGEHLHINGLKRLVKLAYELTKESEKGYRKYDLNHVLSIIDKWDLGRNVSTSL,soluble on expression in E. coli,soluble
SASVRIREAKEGDCGDILRLIRELAEFEKLSDQVKISEEALRADGFGDNPFYHCLVAEILPAPGKLLGPCVVGYGIYYFIYSTWKGRTIYLEDIYVMPEYRGQGIGSKIIKKVAEVALDKGCSQFRLAVLDWNQRAMDLYKALGAQDLTEAEGWHFFCFQGEATRKLAGK,soluble on expression in E. coli,soluble
MPTVQTIYSLEKAPEATKDKEPLVVYATSVDWKWVFSYPEQDIETVNYLNIPVDRPILCKISSADSMASLWIPQLGGQKYAMAGMLMDQYLQADKVGTYEGRNANFTGEHFADQEFDVNAVTEKDFNSWVKKTQNEAPKLTKEKYDELMLPENVDELTFSSTHLKYVDHGQDAEYAMEARKRLGYQAVSPHCKTDPFENVKKNEFKKSDDTEE,soluble on expression in E. coli,not soluble
SLPNGEGLQLKENSESEGVSCHYWSLFDGHAGSGAAVVASRLLQHHITEQLQDIVDILKNSAVLPPTCLGEEPENTPANSRTLTRAASLRGGVGAPGSPSTPPTRFFTEKKIPHECLVIGALESAFKEMDLQIERERSSYNISGGCTALIVICLLGKLYVANAGDSRAIIIRNGEIIPMSSEFTPETERQRLQYLAFMQPHLLGNEFTHLEFPRRVQRKELGKKMLYRDFNMTGWAYKTIEDEDLKFPLIYGEGKKARVMATIGVTRGLGDHDLKVHDSNIYIKPFLSSAPEVRIYDLSKYDHGSDDVLILATDGLWDVLSNEEVAEAITQFLPNCDPDDPHRYTLAAQDLVMRARGVLKDRGWRISNDRLGSGDDISVYVIPLIHGNKLS,soluble on expression in E. coli,not soluble
MSLSENIAAYVGLDVHKETLAVAIAAPERLGEVRYYGTINNEAQAVRRLFQKLQGLYGNILSCYEAGPCGFGLYHQLTAMNIKCQVIAPSRIPKSPTDRIKNDHRDAISLARLLRAGELTPVWIPDLTHEAMRDLIRARAAAKRDSRVARQRILSMLLRTDKHYAGKHWTGKHRTWLANQSFSQPSQQIAFQHYCQSLEQIEDRILQLDQEISRLLPEWSLCNLVCQLQALKGVGQLIAITLVAELGDFSRFSNPKQLMAFLGLVPGEYSSGNSIRPRGITKVGNSELRRLLYEAAWSYRTPAKVGAWLIYYRPDSVTQYSKDIAWKAQQRLCSRYRSLTAKGKKSQVAITAVARELTGFMWDIALAEGHHHHHH,soluble on expression in E. coli,not soluble
MIKFSATLLATLIAASVNAATVDLRIMETTDLHSNMMDFDYYKDAATEKFGLVRTASLIEQARAEVKNSVLVDNGDVIQGSPLGDYMAAKGLKEGDVHPVYKAMNTLNYAVGNLGNHEFNYGLDFLHKALAGAKFPYVNANIIDAKTGKPMFTPYLIQDTRVVDSDGQIHTLRIGYIGFVPPQIMTWDKANLNGKVTVNDITETARKYIPEMRAKGADVVVVVAHSGLSADPYQAMAENSVYYLSQVPGVDAIMFGHAHAVFPGKDFANIKGADIAKGTLNGVPAVMPGMWGDHLGVVDLVLNNDSGKWQVTQSKAEARPIYDAVAKKSLAAEDGKLVSVLKADHDATREFVSK,soluble on expression in E. coli,not soluble
MHHHHHHSSGRENLYFQGTIDDLFIFKRKLGSGAFGDVHLVEERSSGLERVIKTINKDRSQVPMEQIEAEIEVLKSLDHPNIIKIFEVFEDYHNMYIVMETCEGGELLERIVSAQARGKALSEGYVAELMKQMMNALAYFHSQHVVHKDLKPENILFQDTSPHSPIKIIDFGLAELFKSDEHSTNAAGTALYMAPEVFKRDVTFKCDIWSAGVVMYFLLTGCLPFTGTSLEEVQQKATYKEPNYAVECRPLTPQAVDLLKQMLTKDPERRPSAAQVLHHEWFKQA,soluble on expression in E. coli,soluble
PATDIMFPHSSMELVEGIYKHNQVADYFNKVLADTLLAYLDERLKHDPEASIRIMEIGAGTGGTSAGIFEKLKPYQKHINEYCYTDLSKAFLLHAEKEYGAENPYLTYQLFDVEKPIDQQEFEAGGYDVVIAANVLHATKNIRQTLRHTKAVMKNNGMLLLNEMAGNSLFPHITFGLLEGWWLYEDPAVRIPGCPGLHPDSWKAALESEGFESVFF,soluble on expression in E. coli,not soluble
MAHHHHHHMDEKPRLIEHTSACRGTADVLILSGFPWYVTEGQVRKYLTEIHPSNIAPLTVRLYTNPANGSSRGICFVEYCPKQSNTGGASQGIKNEFPERKQKGEAEDIAALMKLRIEATAYERHYIRVLLYRLTNRNWDRGGRLPDLPTDPPPLATSRGGVLEGYGDEGFTVRCSALLGLANTVTPNGIASMQTLRKRFREEAAKAAMPNKSDEGYPGSSAARQ,soluble on expression in E. coli,not soluble
MSAEQFVGRWKLVESENFEDYLKEVGVGLLLRKAACAAKPTLEIKVNGNKWHVNQLSTFKNTTLEFTLGVEFDETTPDGRQFKSTITIEDGKVVHVQKRIKDSDHDSVITRWFEGEKLITTLQSGSVISRRAYIRE,soluble on expression in E. coli,not soluble
MSSTQEASVTDLPVKRPREAEEDNNGGAMETENGGGEIKEPSCMSSIIPGWFSEISPMWPGEAHSLKVEKILFQGKSDYQDVIVFQSATYGKVLVLDGVIQLTERDECAYQEMITHLPLCSISNPKKVLVIGGGDGGVLREVARHSSVEQIDICEIDKMVVDVAKQYFPNVAVGYEDPRVNLIIGDGVAFLKNAAEGTYDAVIVDSSDPIGPAKELFEKPFFESVNRALRPGGVVCTQAESLWLHMDIIEDIVSNCRDIFKGSVNYAWTSVPTYPSGVIGFMLCSSEGPQVDFKKPVSLIDTDESSIKSHCPLKYYNAEIHSAAFCLPSFAKKVIDSKAN,soluble on expression in E. coli,soluble
